First the molecules themselves.
B1: Tetraspanin-12 (Homo sapiens), O95859 (parent)
chain: MAREDSVKCLRCLLYALNLLFWLMSISVLAVSAWMRDYLNNVLTLTAETRVEEAVILTYFPVVHPVMIAVCCFLIIVGMLGYCGTVKRNLLLLAWYFGSLLVIFCVELACGVWTYEQELMVPVQWSDMVTLKARMTNYGLPRYRWLTHAWNFFQREFKCCGVVYFTDWLEMTEMDWPPDSCCVREFPGCSKQAHQEDLSDLYQEGCGKKMYSFLRGTKQLQVLRFLGISIGVTQILAMILTITLLWALYYDRREPGTDQMMSLKNDNSQHLSCPSVELLKPSLSRIFEHTSMANSFNTHFEMEEL

In the assay the parent is B1. The settings on record: with ada10_human ADAM10, O14672.
Chain of ada10_human ADAM10, O14672 (O14672 whole entry): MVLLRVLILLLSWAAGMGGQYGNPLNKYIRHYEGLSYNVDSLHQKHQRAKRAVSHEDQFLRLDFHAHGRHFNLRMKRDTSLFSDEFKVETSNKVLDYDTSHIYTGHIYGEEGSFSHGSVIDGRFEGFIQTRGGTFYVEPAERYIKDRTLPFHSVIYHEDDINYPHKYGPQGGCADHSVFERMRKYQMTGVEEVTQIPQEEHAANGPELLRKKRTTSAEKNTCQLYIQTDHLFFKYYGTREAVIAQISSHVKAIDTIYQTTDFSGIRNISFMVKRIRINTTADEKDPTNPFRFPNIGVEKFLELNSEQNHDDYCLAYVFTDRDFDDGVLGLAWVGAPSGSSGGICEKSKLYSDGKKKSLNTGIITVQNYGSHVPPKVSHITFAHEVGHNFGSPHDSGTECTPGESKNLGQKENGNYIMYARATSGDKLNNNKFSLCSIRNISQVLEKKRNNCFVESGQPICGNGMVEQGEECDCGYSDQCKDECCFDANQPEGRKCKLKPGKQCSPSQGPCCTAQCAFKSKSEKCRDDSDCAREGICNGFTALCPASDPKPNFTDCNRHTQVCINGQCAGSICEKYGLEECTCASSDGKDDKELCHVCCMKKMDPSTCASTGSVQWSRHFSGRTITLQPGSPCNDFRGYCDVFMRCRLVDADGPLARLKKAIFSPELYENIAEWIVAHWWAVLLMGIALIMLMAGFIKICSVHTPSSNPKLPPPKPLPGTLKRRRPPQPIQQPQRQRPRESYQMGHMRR
On to MAREDSVKCLRCLLYALNLLFWLMSISVLAVSAWMRDYLNNVLTLTAETRVEEAVILTYFPVVHPVMIAVCCFLIIVGMLGYCGTVKENLLLLAWYFGSLLVIFCVELACGVWTYEQELMVPVQWSDMVTLKARMTNYGLPRYRWLTHAWNFFQREFKCCGVVYFTDWLEMTEMDWPPDSCCVREFPGCSKQAHQEDLSDLYQEGCGKKMYSFLRGTKQLQVLRFLGISIGVTQILAMILTITLLWALYYDRREPGTDQMMSLKNDNSQHLSCPSVELLKPSLSRIFEHTSMANSFNTHFEMEEL [R88E], for which the “effect of a mutation on the interaction” value is recorded as “decreasing interaction strength”. Next, MAREDSVKSLRSLLYALNLLFWLMSISVLAVSAWMRDYLNNVLTLTAETRVEEAVILTYFPVVHPVMIAVCCFLIIVGMLGYSGTVKRNLLLLAWYFGSLLVIFCVELACGVWTYEQELMVPVQWSDMVTLKARMTNYGLPRYRWLTHAWNFFQREFKCCGVVYFTDWLEMTEMDWPPDSCCVREFPGCSKQAHQEDLSDLYQEGCGKKMYSFLRGTKQLQVLRFLGISIGVTQILAMILTITLLWALYYDRREPGTDQMMSLKNDNSQHLSCPSVELLKPSLSRIFEHTSMANSFNTHFEMEEL [C9S;C12S;C83S]: “disrupting interaction strength”.

The values above are taken from IntAct's records for PubMed 19587294.
